Measurements from KR20230087219A (dated 2023).

Experiments:
[1] = target: T1, MERS-CoV nucleocapsid protein (Sino Biological Cat. No. 40068V08B) (MERS-CoV, UniProt K9N4V7 1-411); test: indirect LFIA, NP fixed on nitrocellulose, hybridoma culture medium
T1 construct: also called MERS-CoV NP; MERS NP

[2] = target: T2, SARS-CoV nucleocapsid protein (Sino Biological Cat. No. 40143-V08B) (SARS-CoV, UniProt P59595 1-422); test: as above
T2 construct: also called SARS-CoV NP

Row | Binder | binding result [1] | binding result [2]
1 | 79C12 (antibody, V domains shown, also called monoclonal antibody 79C12) VH: EVKLEESGGGLVQPGGSMKLSCVASGFTFSDYWMNWVRQSPEKGLEWVAEIRLKSNNYATHYAESVKGRFTISRDDSKSSVYLQMNNLRAEDTGIYYCTRAAMDYWGQGTSVTVSS VL: not shown | no binding | no binding
2 | 54G6 (antibody, V domains shown, also called monoclonal antibody 54G6) VH: EVQGVESGGGLVQPGGSMKLSCAASGFTFSDYWMNWVRQSPEKGLEWVGEIRLKSNNYATHYAESVKGRFTISRDDSKSSIHLQMNNLRAEDTGIYYCTRYAMDYWGQGTTVTVSS VL: GIVMTQSPSSLAVSPGEKVTMSCKSSQSLLNSRTRKNHLAWYQQKPGQSPKLLIYWASTKDSGVPDRFTGSGSGTDFTLTISSVQAEDLAVYYCKQSYNLFTFGSGTKLEIK | no binding | no binding
3 | 54G10 (antibody, V domains shown, also called monoclonal antibody 54G10) VH: EVTLKVCGPGILQPSQTLSLTCSFSGFSLSTSGMGVGWIRQPSGKGLEWLAHIWWDDVKRYNPALKSRLTISKDTSSSQVFLKIASVDTADTATYYCARYYRYDVRWGQGTLVTVSA VL: DIVMTQTPKFLLVSAGDRVTITCKASQSVSNDVAWYQQKPGQSPTLLIYSASNRYTGVPDRFTGSGYGTDFTFTISTVQAEDLAVYFCQQDYSSPLTFGAGTKLELK | no binding | no binding
